# From patent US20210230570
# Numbering of substitutions follows the chain as printed. Names and notes keep the numbering of the source.
# B1: FIXa-R318Y/R338E/R403E/E410N/T412A (protein)
# chain 1: YNSGKLEEFVQGNLERECMEEKCSFEEAREVFENTERTTEFWKQYVDGDQCESNPCLNGGSCKDDINSYECWCPFGFEGKNCELDVTCNIKNGRCEQFCKNSADNKVVCSCTEGYRLAENQKSCEPAVPFPCGRVSVSQTSKLTR
# chain 2: VVGGEDAKPGQFPWQVVLNGKVDAFCGGSIVNEKWIVTAAHCVETGVKITVVAGEHNIEETEHTEQKRNVIRIIPHHNYNAAINKYNHDIALLELDEPLVLNSYVTPICIADKEYTNIFLKFGSGYVSGWGRVFHKGYSALVLQYLRVPLVDRATCLESTKFTIYNNMFCAGFHEGGRDSCQGDSGGPHVTEVEGTSFLTGIISWGEECAMKGKYGIYTKVSEYVNWIKNKAKLT
# B2: FIXa I251S/R318Y/R338E/R403E/E410N (protein)
# chain 1: B1 chain 1
# chain 2: B1 chain 2 with I71S, A232T
# B3: FIXa Y155F/K247N/N249S/R318Y/R338E/R403E/E410N (protein)
# chain 1: B1 chain 1
# chain 2: B1 chain 2 with K67N, N69S, A232T
# B4: FIXa Y155F/I251S/R318Y/R338E/R403E/E410N (protein)
# chain 1: B1 chain 1
# chain 2: B1 chain 2 with I71S, A232T
# B5: FIXa Y155F/K228N/K247N/N249S (protein)
# chain 1: B1 chain 1
# chain 2: B1 chain 2 with K48N, K67N, N69S, Y138R, E158R, E223R, N230E, A232T
# B6: FIXa D85N/K228N/R318Y/R338E/R403E/E410N (protein)
# chain 1: B1 chain 1 with D85N
# chain 2: B1 chain 2 with K48N, A232T
# B7: FIXa-R318Y/R338E/T343R/N346Y/R403E/E410N (protein)
# chain 1: B1 chain 1
# chain 2: B1 chain 2 with T163R, N166Y, A232T
# B8: FIXa R318Y/R338E/R403E/T412A (protein)
# chain 1: B1 chain 1
# chain 2: B1 chain 2 with N230E
# B9: FIXa K228N/R318Y/R338E/R403E/E410N (protein)
# chain 1: B1 chain 1
# chain 2: B1 chain 2 with K48N, A232T
# B10: FIXa-D104N/K106S/Y155F/K247N/N249S/N260S (protein)
# chain 1: B1 chain 1 with D104N, K106S
# chain 2: B1 chain 2 with K67N, N69S, N80S, Y138R, E158R, E223R, N230E, A232T
# B11: FIXa R318Y/R338E/N346D/R403E/E410N (protein)
# chain 1: B1 chain 1
# chain 2: B1 chain 2 with N166D, A232T
# B12: FIXa A103N/N105S/K247N/N249S/R318Y/R338E/R403E/E410N (protein)
# chain 1: B1 chain 1 with A103N, N105S
# chain 2: B1 chain 2 with K67N, N69S, A232T
# B13: FIXa R318Y/R338E/E410S (protein)
# chain 1: B1 chain 1
# chain 2: B1 chain 2 with E223R, N230S, A232T
# B14: FIXa Y155F/K228N/R318Y/R338E/R403E/E410N (protein)
# chain 1: B1 chain 1
# chain 2: B1 chain 2 with K48N, A232T
# B15: FIXa-R318Y/R338E/T343R/N346D/R403E/E410N (protein)
# chain 1: B1 chain 1
# chain 2: B1 chain 2 with T163R, N166D, A232T
# B16: FIXa D104N/K106S/K228N/K247N/N249S (protein)
# chain 1: B1 chain 1 with D104N, K106S
# chain 2: B1 chain 2 with K48N, K67N, N69S, Y138R, E158R, E223R, N230E, A232T
# B17: FIXa D104N/K106S/I251S/R318Y/R338E/R403E/E410N (protein)
# chain 1: B1 chain 1 with D104N, K106S
# chain 2: B1 chain 2 with I71S, A232T
# B18: FIXa I251S/R318Y/R338E/E410N (protein)
# chain 1: B1 chain 1
# chain 2: B1 chain 2 with I71S, E223R, A232T
# B19: FIXa Y155F/K247N/N249S/R318Y/R338E/E410N (protein)
# chain 1: B1 chain 1
# chain 2: B1 chain 2 with K67N, N69S, E223R, A232T
# B20: FIXa D104N/K106S/Y155F/K228N/K247N/N249S (protein)
# chain 1: B1 chain 1 with D104N, K106S
# chain 2: B1 chain 2 with K48N, K67N, N69S, Y138R, E158R, E223R, N230E, A232T
# B21: FIXa R318Y/R338E/T412A (protein)
# chain 1: B1 chain 1
# chain 2: B1 chain 2 with E223R, N230E
# B22: FIXa-K247N/N249S/N260S (protein)
# chain 1: B1 chain 1
# chain 2: B1 chain 2 with K67N, N69S, N80S, Y138R, E158R, E223R, N230E, A232T
# B23: FIXa D104N/K106S/K247N/N249S/R318Y/R338E/R403E/E410N (protein)
# chain 1: B1 chain 1 with D104N, K106S
# chain 2: B1 chain 2 with K67N, N69S, A232T
# B24: FIXa Y155F/N260S/R318Y/R338E/R403E/E410N (protein)
# chain 1: B1 chain 1
# chain 2: B1 chain 2 with N80S, A232T
# B25: FIXa K228N/K247N/N249S (protein)
# chain 1: B1 chain 1
# chain 2: B1 chain 2 with K48N, K67N, N69S, Y138R, E158R, E223R, N230E, A232T
# B26: FIXa K228N/K247N/N249S/R318Y/R338E/R403E/E410N (protein)
# chain 1: B1 chain 1
# chain 2: B1 chain 2 with K48N, K67N, N69S, A232T
# B27: FIXa D104N/K106S/I251S/R318Y/R338E/E410N (protein)
# chain 1: B1 chain 1 with D104N, K106S
# chain 2: B1 chain 2 with I71S, E223R, A232T
# B28: FIXa R318Y/R338E/E410N/T412V (protein)
# chain 1: B1 chain 1
# chain 2: B1 chain 2 with E223R, A232V
# B29: FIXa R318Y/R338E/R403E/E410N/T412V (protein)
# chain 1: B1 chain 1
# chain 2: B1 chain 2 with A232V
# B30: FIXa K247N/N249S/R318Y/R338E/R403E/E410N (protein)
# chain 1: B1 chain 1
# chain 2: B1 chain 2 with K67N, N69S, A232T
# B31: FIXa-R318Y/R338E/N346Y/R403E/E410N (protein)
# chain 1: B1 chain 1
# chain 2: B1 chain 2 with N166Y, A232T
# B32: FIXa R318Y/R338E/R403E/E410S (protein)
# chain 1: B1 chain 1
# chain 2: B1 chain 2 with N230S, A232T
# B33: FIXa R318Y/R338E/R403E/E410N/T412A (protein)
# chain 1: B1 chain 1
# chain 2: B1 chain 2
# B34: FIXa K247N/N249S/R318Y/R338E/E410N (protein)
# chain 1: B1 chain 1
# chain 2: B1 chain 2 with K67N, N69S, E223R, A232T
# B35: FIXa Y259F/K265T/Y345T (protein)
# chain 1: B1 chain 1
# chain 2: B1 chain 2 with Y79F, K85T, Y138R, E158R, Y165T, E223R, N230E, A232T
# B36: FIXa N260S/R318Y/R338E/R403E/E410N (protein)
# chain 1: B1 chain 1
# chain 2: B1 chain 2 with N80S, A232T
# B37: FIXa-D104N/K106S/K247N/N249S/N260S (protein)
# chain 1: B1 chain 1 with D104N, K106S
# chain 2: B1 chain 2 with K67N, N69S, N80S, Y138R, E158R, E223R, N230E, A232T
# B38: FIXa-K247N/N249S/N260S/R318Y/R338E/R403E/E410N (protein)
# chain 1: B1 chain 1
# chain 2: B1 chain 2 with K67N, N69S, N80S, A232T
# B39: FIXa-Y155F/K247N/N249S/N260S (protein)
# chain 1: B1 chain 1
# chain 2: B1 chain 2 with K67N, N69S, N80S, Y138R, E158R, E223R, N230E, A232T
# B40: FIXa D104N/K106S/N260S/R318Y/R338E/R403E/E410N (protein)
# chain 1: B1 chain 1 with D104N, K106S
# chain 2: B1 chain 2 with N80S, A232T
# Legend:
# [1] = molecular target: plasma purified human AT-III (antithrombin III), in complex with full-length unfractionated heparin (AT-III/UFH)
# [2] = molecular target: plasma purified human antithrombin III (AT-III) in complex with full-length unfractionated heparin (UFH)
# [3] = molecular target: Antithrombin III (plasma purified human AT-III, Molecular Innovations), as AT-III/UFH complex
# Factor X (FX), P00742, sequence (P00742 whole entry, looked up): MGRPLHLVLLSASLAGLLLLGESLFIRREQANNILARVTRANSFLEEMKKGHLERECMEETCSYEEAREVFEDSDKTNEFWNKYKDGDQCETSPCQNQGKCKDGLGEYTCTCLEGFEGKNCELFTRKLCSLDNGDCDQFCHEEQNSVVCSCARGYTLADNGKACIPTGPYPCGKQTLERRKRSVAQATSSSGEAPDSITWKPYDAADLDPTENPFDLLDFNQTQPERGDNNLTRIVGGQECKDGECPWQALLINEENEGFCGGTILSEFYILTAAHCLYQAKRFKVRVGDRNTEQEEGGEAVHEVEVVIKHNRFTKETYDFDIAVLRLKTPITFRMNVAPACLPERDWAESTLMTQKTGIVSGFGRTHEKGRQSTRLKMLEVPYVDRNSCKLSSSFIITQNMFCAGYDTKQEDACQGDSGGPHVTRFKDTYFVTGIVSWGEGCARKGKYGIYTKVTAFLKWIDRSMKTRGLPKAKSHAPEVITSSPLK
# Factor X, P00742, sequence (P00742 whole entry, looked up): as above
protein,measurement,setting,value
B1,kcat/KM,"Factor X (FX), P00742",2.6e+08 M⁻¹ s⁻¹
same,"kcat of FX activation by FIXa (Xase complex with FVIIIa, PC/PS vesicles, Ca2+)","Factor X, P00742",8.4 s⁻¹
same,K0.5-mut/K0.5-wt (against Catalyst Biosciences WT FIXa),[1],> 517
B2,K0.5-mut/K0.5-wt,[2],> 517 fold
B3,K0.5-mut/K0.5-wt,[2],> 517 fold
B4,K0.5-mut/K0.5-wt,[2],> 517 fold
B5,K0.5-mut/K0.5-wt,[2],1.4 fold
B6,K0.5-mut/K0.5-wt,[2],> 517 fold
B7,K0.5-mut/K0.5-wt (against Catalyst Biosciences WT FIXa),[3],> 517
same,KM,"Factor X (FX), P00742",15.8 nM
same,"kcat of FX activation by FIXa in the Xase complex (FVIIIa, PC/PS vesicles, Ca2+)","Factor X (FX), P00742",4.6 s⁻¹
B8,K0.5-mut/K0.5-wt,[2],> 517 fold
B9,K0.5-mut/K0.5-wt,[2],> 517 fold
B10,K0.5-mut/K0.5-wt (against Catalyst Biosciences WT FIXa),[3],35.8
same,KM (nM); Catalytic activity of FIXa variants (KM),"Factor X (FX), P00742",68.5 nM
same,"kcat of FX activation by FIXa in the Xase complex (FVIIIa, PC/PS vesicles, Ca2+)","Factor X (FX), P00742",0.5 s⁻¹
B11,K0.5-mut/K0.5-wt,[2],> 517 fold
B12,K0.5-mut/K0.5-wt,[2],129 fold
B13,K0.5-mut/K0.5-wt,[2],279 fold
B14,K0.5-mut/K0.5-wt,[2],> 517 fold
B15,K0.5-mut/K0.5-wt (against Catalyst Biosciences WT FIXa),[3],> 517
same,KM,"Factor X (FX), P00742",67 nM
same,"kcat of FX activation by FIXa in the Xase complex (FVIIIa, PC/PS vesicles, Ca2+)","Factor X (FX), P00742",5.4 s⁻¹
B16,K0.5-mut/K0.5-wt,[2],2.1 fold
B17,K0.5-mut/K0.5-wt,[2],> 517 fold
B18,K0.5-mut/K0.5-wt,[2],303 fold
B19,K0.5-mut/K0.5-wt,[2],200 fold
B20,K0.5-mut/K0.5-wt,[2],1.6 fold
B21,K0.5-mut/K0.5-wt,[2],396 fold
B22,K0.5-mut/K0.5-wt (against Catalyst Biosciences WT FIXa),[3],8.1
same,KM (nM); Catalytic activity of FIXa variants (KM),"Factor X (FX), P00742",114 nM
same,"kcat of FX activation by FIXa in the Xase complex (FVIIIa, PC/PS vesicles, Ca2+)","Factor X (FX), P00742",3.3 s⁻¹
B23,K0.5-mut/K0.5-wt,[2],> 517 fold
B24,K0.5-mut/K0.5-wt,[2],501 fold
B25,K0.5-mut/K0.5-wt,[2],4.4 fold
B26,KM,"Factor X (FX), P00742",55.8 nM
same,K0.5-mut/K0.5-wt,[2],> 517 fold
B27,K0.5-mut/K0.5-wt,[2],464 fold
B28,K0.5-mut/K0.5-wt,[2],252 fold
B29,KM,"Factor X (FX), P00742",44.3 nM
same,K0.5-mut/K0.5-wt,[2],> 517 fold
B30,K0.5-mut/K0.5-wt,[2],418 fold
B31,K0.5-mut/K0.5-wt (against Catalyst Biosciences WT FIXa),[3],> 517
same,KM,"Factor X (FX), P00742",28.1 nM
same,"kcat of FX activation by FIXa in the Xase complex (FVIIIa, PC/PS vesicles, Ca2+)","Factor X (FX), P00742",3.4 s⁻¹
B32,K0.5-mut/K0.5-wt,[2],> 517 fold
B33,KM,"Factor X (FX), P00742",33.5 nM
same,K0.5-mut/K0.5-wt,[2],> 517 fold
B34,K0.5-mut/K0.5-wt,[2],78.3 fold
B35,K0.5-mut/K0.5-wt,[2],0.3 fold
B36,K0.5-mut/K0.5-wt,[2],> 517 fold
B37,K0.5-mut/K0.5-wt (against Catalyst Biosciences WT FIXa),[3],65.3
same,KM (nM); Catalytic activity of FIXa variants (KM),"Factor X (FX), P00742",61.2 nM
same,"kcat of FX activation by FIXa in the Xase complex (FVIIIa, PC/PS vesicles, Ca2+)","Factor X (FX), P00742",0.6 s⁻¹
B38,K0.5-mut/K0.5-wt (against Catalyst Biosciences WT FIXa),[3],288
same,KM,"Factor X (FX), P00742",47.4 nM
same,KM (nM); Catalytic activity of FIXa variants (KM),"Factor X (FX), P00742",62.2 nM
same,"kcat of FX activation by FIXa in the Xase complex (FVIIIa, PC/PS vesicles, Ca2+)","Factor X (FX), P00742",3.4 s⁻¹
same,kcat/KM,"Factor X (FX), P00742",9.7e+07 M⁻¹ s⁻¹
B39,K0.5-mut/K0.5-wt (against Catalyst Biosciences WT FIXa),[3],7.9
same,KM (nM); Catalytic activity of FIXa variants (KM),"Factor X (FX), P00742",96.5 nM
same,"kcat of FX activation by FIXa in the Xase complex (FVIIIa, PC/PS vesicles, Ca2+)","Factor X (FX), P00742",1.8 s⁻¹
B40,K0.5-mut/K0.5-wt,[2],> 517 fold
